Measured values: the DeepSol protein solubility set

test: soluble on expression in E. coli; label from the status in PepcDB or PDB records

Sequence	soluble on expression in E. coli
MGSDKIHHHHHHMSYRIVVDPKEVVKPISRHIYGHFTEHLGRCIYGGIYEEGSPLSDERGFRKDVLEAVKRIKVPNLRWPGGNFVSNYHWEDGIGPKDQRPVRFDLAWQQEETNRFGTDEFIEYCREIGAEPYISINMGTGTLDEALHWLEYCNGKGNTYYAQLRRKYGHPEPYNVKFWGIGNEMYGEWQVGHMTADEYARAAKEYTKWMKVFDPTIKAIAVGCDDPIWNLRVLQEAGDVIDFISYHFYTGSDDYYETVSTVYLLKERLIGVKKLIDMVDTARKRGVKIALDEWNVWYRVSDNKLEEPYDLKDGIFACGVLVLLQKMSDIVPLANLAQLVNALGAIHTEKDGLILTPVYKAFELIVNHSGEKLVKTHVESETYNIEGVMFINKMPFSVENAPFLDAAASISEDGKKLFIAVVNYRKEDALKVPIRVEGLGQKKATVYTLTGPDVNARNTMENPNVVDITSETITVDTEFEHTFKPFSCSVIEVELE	not soluble
GPGSMRGKRFATPTGQPGMRQGGYTQLHAVSASTSPGRRPTAKHCAPSASQKELFTSQALSRPRPTEAHALSSSTPERRFQAVQRSSTQSSMPSTSVHHMLNELVDLSHSIAALLEQGQVLSLTAAPSAADRQQEASLKTQEIERIVRRVEAHFVDRIQSLETLNASLSEEVRQLRGALATQRTNGAEGRANVVQDIRGGDLQEDSKTLDACERASWDEPGNGAASSEVEHLRRVLMAEKRQRLRVEEQTQSLTEQHAKVVGTLERRLKKQEEQLYDLIAAIDRGYGGGSVTTSASPTRCTERGSSHRLPTPRHLLRQQLAQHQQTQRALQQYKENLRLEPPSPAGSDEVSATMKELGLDDVRRTLELIRSSKPLTVQEHHHDQEETHTAPAVCSPPHTARDGPAVVHSPRVCSQVPPPAADRAACTSGTEVDEITAFLENITKELESLDSQ	soluble
MSLLITRFIADHQGHREGPDGLRWGVESICTQLTELGVPIAPSTYYDHINREPSRRELRDGELKEHISRVHAANYGVYGARKVWLTLNREGIEVARCTVERLMTKLGLSGTTRGKARRTTIADPATARPADLVQRRFGPPAPNRLWVADLTYVSTWAGFAYVAFVTDAYARRILGWRVASTMATSMVLDAIEQAIWTRQQEGVLDLKDVIHHTDRGSQYTSIRFSERLAEAGIQPSVGAVGSSYDNALAETINGLYKTELIKPGKPWRSIEDVELATARWVDWFNHRRLYQYCGDVPPVELEAAYYAQRQRPAEGHHHHHH	not soluble
MSWWQDMDQRGGVSSPSGALASAEPAPASVTLAELLHLVQKGQEVPGLEKRHITATHGEPTASLLPRRPKPWEDAGSAASPCTIALDTRTQPPTIEERSRGSPAAQLDGGPRVS	soluble
MSKDAKSPKKLRSNRAALTHKVGYALRHPERVGPYVRRAGRDAWLRVKHPDHVGYYRAVMASDARRSPEAAVGSRTHDRWLALGQMQFDYLVEHGLRPGHRMLDIGCGNLRGGWRFIDHLDSGHYYGVDISPDILIAAKKTLTERGLQAKLPHLTITGDLRLEFLPDDHFDVVHAHSVFSHSPLNVIDECLAHVGRVLTDTGFFDFTFDRTEGTEHQVLREDFYYRTDTLLTLAAQHNLHARFMEDWEKRPHGQSKIRVSRSPLPSLEHHHHHH	not soluble
MGSDKIHHHHHHMVVLAPHIEWLMETVHIISGLNDGGAEAVLYRLCSSDKAAEHYVISLMDEGKYGALLREAGVQVSCLSMPRGRVTLGGLWRLWRLLRQIRPQAVQTWMYHADLVGGLIARLAGVKQVFWGIHHTTLHAGQSRRSTIWVARLCARISSCLPSAIICCAQKALEAHRELGYAAEKLRVIPNGYDLVRFRVDEDARVRLRTEWNTGSRWLIGMVGRFDPLKDHKNLLDALAIVKYRGVDFCCVLAGRGLDQNNAQLMAWLTELDLAGEVKLLGQRMDIPDVMNALDVHVLSSSSEAFPNVVAEAMACGTSVVTTNVGDAALIVGETGWVVPARNPGMLADALLQAYVAMHDEAAWQVRCTAVRQRVEDHFSLERMVENYHLVWQNKL	not soluble
SMGAEPGRPARLDQLLDMPAAGLAVQLRHAWNPEDRSLNVFVKDDDRLTFHRHPVAQSTDGIRGKVGHARGLHAWQINWPARQRGTHAVVGVATARAPLHSVGYTALVGSDAESWGWDLGRSRLYHDGKNQPGVAYPAFLGPDEAFALPDSLLVVLDMDEGTLSFIVDGQYLGVAFRGLKGKKLYPVVSAVWGHCEVTMRYINGLDPE	soluble
MFETCEAIVMRTVDYGETNKIVTLFTREWGKVAAMARGAKKPSSRLSAVTQPLSYGHYVIRRSRGVGVLHQGELIDSMRALREDLFAAAYAVYIVELTDKSTEEQKRNPYLFELLLQTLQYMSEGRDLEILTFIYEMKMLAVLGIPPVLDRCARCGATEGRFSFSVKEAGFLCHRCEASDPHRFPLSSASVRLLRLFFHIDLARLGSISVKESTKMELGSVLSAYYDEYAGLSLKTKRFLQQIGELKDKLSPDGGQGASFSL	not soluble
MNSSRPYLVRALYEWIVDNDCTPHILVNAEFAGVKVPPGYASDGQIVLNVSPSAVRHLHMDNEAVSFEGRFGGVAQSLYIPALAVMAIYARENGQGMVFDLEQPGPVDDEPGDDDGGPSDEPPRPSGRPSLKVVK	not soluble
MKTIDCRNMACPAPVVTTKRALEEAGGETVRVLVDAGAPRENVARFAANRGFRVAVEEADGGFAITIGSGEGAPSAPAENPARQGRTVMLITSDRLGDGPEDLGRLLMKSFIITLLDQESLPDRMMFLNSGVLLTTEGSEVLQALEQLGNRGVEVLSCGVCLDFFHCKEKLAAGTVTNMFTTAEALLTAGSVIRLLEHHHHHH	soluble
MFQRKTLQRRNLKGLNLNLHPDVGNNGQLQEKTETHQGQSRIEGHVMSNINAIQNNSNLFLRRGIKKKLTLDAFGDDQAISKPNTVVIQQPQNEPVLVLSSLSQSPCVSSSSSLSTPCIIDAYSNNFGLSPSSTNSTPSTIQGLSNIATPVENEHSISLPPLEESLSPAAADLKDTLSGTSNGNYIQLQDLVQLGKIGAGNSGTVVKALHVPDSKIVAKKTIPVEQNNSTIINQLVRELSIVKNVKPHENIITFYGAYYNQHINNEIIILMEYSDCGSLDKILSVYKRFVQRGTVSSKKTWFNELTISKIAYGVLNGLDHLYRQYKIIHRDIKPSNVLINSKGQIKLCDFGVSKKLINSIADTFVGTSTYMSPERIQGNVYSIKGDVWSLGLMIIELVTGEFPLGGHNDTPDGILDLLQRIVNEPSPRLPKDRIYSKEMTDFVNRCCIKNERERSSIHELLHHDLIMKYVSPSKDDKFRHWCRKIKSKIKEDKRIKREALDRAKLEKKQSERSTH	not soluble
MGSDKIHHHHHHMNTYFDNATSSYPKPDAMRQALAYFYDVPVGSYGRSRDRETLRVTSEVEELRDALADLIGVSESAHICFADNATTGINTILRGSLQAGCSVLVSPMEHNAVMRPLQCLADTIGLKIALMPSMPDGRVDTDRLVSAIPTDTALAVVNLESNVNGLVQPIEEIARLLTQERGIPILADATQYLGTSRLKADELGLAYVAFTGHKGLLGPSGTGGFYIRDPRSVHPLTTGGNGLHSADWTVGVEMPERFMAGTVNVLGLTALLASVRQLPPFRISRDAWKQCMQQMQRFPGLRVYGAADPIEQGYLCSLTHDRLTPARIGDALYEAFDIVTRTGIHCAPLAHRSIGTFATGTVRLSLSPYHEEADLEYLLNALSHVLRS	not soluble
MKMKILGISFGTKNGNNDTMCKVALKGAKEAGAEVEFIQMSSINIKHCTGCCACVKTLLSGKGSMCVLKDDFEWLLDKMKDADGIVVSDPIFEEGASGLFHTIMDRFGPRADRGNNIIGTKVAEAIGGKIPDSRMLNDKVISFMGIGGSDWGTRVQCEHAMLALIPMWKVIDNAWFPWAKELVMDDTRLVQVHQIGLNIVEAAKDFEKASYQGEEGVCPHCHNRLFYLEPGTKKAICALCGIVGELDTISGKTIFSFPEEQLGHAHDTLPGKFIHGDDIKKMEGHYAEVRKTQEFKERKTSYNFIETLTKEKQAGLEHHHHHH	not soluble
SLIDTHCHLDLYPKPGTVIAEADKRGMFVIAVTTTPKAFLGNIRMTEGKKRIRVAVGLHPELVAERHREVEDVCKLMAKTKYVGEIGIDGSPPHKSSIKLQTEVFARFLTRASELGGKVLSIHSRGAAALVLDEIERNGHGTLPILHWFSGSKQQVERAAKLGCWFSVGPAMLRSRKGRELLASMPRHRLLTETDGPFATDVDRPLMPWDVSMALPAIADVWGTTPVGVDQVVSANFRELINATEQGRAAAKLVGNC	not soluble
